The values that follow come from patent publication US20240092919A1 (Ablynx, published 2024).

For assay [1], the target named is T1, Cynomolgus TCR(AEA41865/AEA41866)-zipper protein (cynomolgus monkey).
T1 construct: also called cyTCR-zipper; cynoTCR-zipper protein
T1 TCR alpha: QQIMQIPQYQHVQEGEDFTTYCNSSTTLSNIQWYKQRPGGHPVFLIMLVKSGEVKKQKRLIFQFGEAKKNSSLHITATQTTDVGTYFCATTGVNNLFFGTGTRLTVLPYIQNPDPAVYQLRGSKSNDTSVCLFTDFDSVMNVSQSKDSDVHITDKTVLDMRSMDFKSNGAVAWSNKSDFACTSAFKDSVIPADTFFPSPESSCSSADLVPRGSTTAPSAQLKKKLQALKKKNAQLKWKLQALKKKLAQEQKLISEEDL
T1 TCR beta: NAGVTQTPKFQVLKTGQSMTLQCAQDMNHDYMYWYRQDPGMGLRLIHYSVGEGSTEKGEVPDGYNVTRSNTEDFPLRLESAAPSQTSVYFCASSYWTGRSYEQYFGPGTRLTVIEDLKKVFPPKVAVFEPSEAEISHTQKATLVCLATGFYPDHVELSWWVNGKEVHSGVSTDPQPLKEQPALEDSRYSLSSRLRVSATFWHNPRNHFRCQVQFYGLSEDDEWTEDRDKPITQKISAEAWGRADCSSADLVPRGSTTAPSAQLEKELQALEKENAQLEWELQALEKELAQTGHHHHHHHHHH
The assay is described as follows: BLI (Octet RED384), KD on cyTCR-zipper against KD on huTCR-zipper. Here is the method: Affinity constants (KD) were calculated applying a 1:1 interaction model using the ForteBio Data Analysis software.
In general terms: Biolayer interferometry detects binding as a change in optical thickness at a sensor tip.

Assay [2] has as its target T1, Cynomolgus …. The assay is described as follows: SPR (ProteOn XPR36, 37°C), KD on huTCR-zipper against KD on cyTCR-zipper.
In assay [3] the target is T2, Cynomolgus T cell receptor on the HSC-F cynomolgus T cell line (cynomolgus monkey).
T2 construct: whole, on cells; also called HSC-F cells; HSC-F cyno T cell line (NIBIO JCRB1164)
The assay is described as follows: flow cytometry competition with Flag3-His6-tagged anti-TCR ISVD ligand, HSC-F cells. On the technique in general: Flow cytometry measures light scatter and fluorescence of single cells or particles in a stream.
Procedure: (§1) Subsequently, cells were resuspended in FACS buffer supplemented with 1 μg/ml Propidium Iodide (PI, Sigma, P4170) to distinguish live from dead cells. Cells were analyzed using a FACS Array flow cytometer (BD Biosciences) using Flowing Software. First a P1 population which represented more than 80% of the total cell population was selected based on FSC-SSC distribution. In this gate, 10000 cells were counted during acquisition. From this population the Propidium iodide or TO-PRO©-3 Iodide positive cells (dead cells) were excluded and the median or Mean PE value was calculated.

For assay [4], the target named is T3, Human T cell receptor on human primary T cells (human, UniProt P01848 1-140; P01850 1-176).
T3 construct: whole, on cells
T3 TCR alpha (looked up): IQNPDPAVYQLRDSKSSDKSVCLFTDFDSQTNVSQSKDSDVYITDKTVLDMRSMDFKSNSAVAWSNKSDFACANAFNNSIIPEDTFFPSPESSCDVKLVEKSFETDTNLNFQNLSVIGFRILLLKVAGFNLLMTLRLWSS
T3 TCR beta (looked up): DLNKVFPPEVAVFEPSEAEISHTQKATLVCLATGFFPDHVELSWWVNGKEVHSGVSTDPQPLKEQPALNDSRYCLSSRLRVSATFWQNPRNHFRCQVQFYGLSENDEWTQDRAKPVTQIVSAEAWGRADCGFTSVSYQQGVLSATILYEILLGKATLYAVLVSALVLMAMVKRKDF
The assay is described as follows: flow cytometry competition with Flag3-His6-tagged anti-TCR ISVD ligand, human primary T cells.
Procedure: as §1

In assay [5] the target is T4, Cynomolgus TCR(AEA41865/AEA41866)-zipper protein (cynomolgus monkey).
T4 construct: also called cyTCR-zipper protein; cynoTCR zipper
T4 TCR alpha: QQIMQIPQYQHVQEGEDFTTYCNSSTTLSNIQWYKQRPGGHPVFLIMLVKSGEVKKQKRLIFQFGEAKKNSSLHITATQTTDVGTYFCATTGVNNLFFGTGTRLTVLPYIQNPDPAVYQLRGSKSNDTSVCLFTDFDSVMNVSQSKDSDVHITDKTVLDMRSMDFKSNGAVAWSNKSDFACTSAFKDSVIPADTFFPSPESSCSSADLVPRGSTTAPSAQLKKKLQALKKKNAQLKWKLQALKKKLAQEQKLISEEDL
T4 TCR beta: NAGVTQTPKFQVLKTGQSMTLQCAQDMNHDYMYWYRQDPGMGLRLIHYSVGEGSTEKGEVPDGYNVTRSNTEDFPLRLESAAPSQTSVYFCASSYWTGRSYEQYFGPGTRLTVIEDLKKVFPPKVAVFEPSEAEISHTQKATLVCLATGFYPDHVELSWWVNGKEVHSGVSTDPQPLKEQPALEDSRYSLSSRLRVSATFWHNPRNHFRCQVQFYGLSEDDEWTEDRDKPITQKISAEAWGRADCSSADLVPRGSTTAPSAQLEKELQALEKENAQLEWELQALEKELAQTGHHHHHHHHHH
The assay is described as follows: SPR, ProteOn XPR36, 37 C, immobilised TCR-zipper. On the technique in general: In SPR one partner is held on a chip, and binding of the other changes the refractive index at the surface.
Source text: In brief, huTCR-zipper or cyTCR-zipper protein was immobilized on a GLC sensor chip (between 100-200 RU) via amine coupling chemistry, using EDC/NHS for activation of the carboxyl groups on the chip surface (running buffer: HBS-EP+, pH7.4). […] Processed sensorgrams were fitted with the Langmuir model (1:1 interaction) using ProteOn Manager 3.1.0 (Version 3.1.0.6) software.

By IC50 is commonly meant the concentration that gives 50% inhibition. A higher IC50 goes with a need for much substance. One may read the Kd as the equilibrium constant for the complex coming apart.

B1: T0170056G05 (VHH, not shown: small tags and cut ends)
VHH: EVQLVESGGGLVQPGGSLRLSCVASGDVHKINFLGWYRQAPGKEREKVAHISIGDQTDYADSAKGRFTISRDESKNMVYLQMNSLKPEDTAVYFCRAFSRIYPYDYWGQGTLVTVSS
notes: also called T01700056G05; parental anti-TCR ISVD
In the case of B1, in assay [1], the “difference in human-cynomolgus cross-reactivity based on KD” value was found to be 4.5 fold.

B2: T017000680 (VHH)
VHH: DVQLVESGGGVVQPGGSLRLSCVASGYVHKINFYGWYRQAPGKEREKVAHISIGDQTDYADSAKGRFTISRDESKNTVYLQMNSLRPEDTAAYYCRALSRIWPYDYWGQGTLVTVSS
As to B2, the “delta for human-cynomolgus cross-reactivity based on KD” value in assay [2] was found to be 1.8 fold.

B3: T017000680 (VHH)
VHH: DVQLVESGGGVVQPGGSLRLSCVASGYVHKINFYGWYRQAPGKEREKVAHISIGDQTDYADSAKGRFTISRDESKNTVYLQMNSLRPEDTAAYYCRALSRIWPYDYWGQGTLVTVSS
Regarding B3, the IC50 in assay [3] worked out at 730 nM; in assay [4], 100 nM. In addition, the Kd in assay [5] worked out at 4.9 nM.
